The values that follow come from patent publication US20190234935A1.

The test deals with mouse GFRAL (endogenous, wild type mice against Gfral-/- mice) (mouse) (UniProt Q6SJE0). As to the kind of experiment: cell-based or functional assay.
Chain of mouse GFRAL (endogenous, wild type mice against Gfral-/- mice) (mouse) (Q6SJE0 20-393): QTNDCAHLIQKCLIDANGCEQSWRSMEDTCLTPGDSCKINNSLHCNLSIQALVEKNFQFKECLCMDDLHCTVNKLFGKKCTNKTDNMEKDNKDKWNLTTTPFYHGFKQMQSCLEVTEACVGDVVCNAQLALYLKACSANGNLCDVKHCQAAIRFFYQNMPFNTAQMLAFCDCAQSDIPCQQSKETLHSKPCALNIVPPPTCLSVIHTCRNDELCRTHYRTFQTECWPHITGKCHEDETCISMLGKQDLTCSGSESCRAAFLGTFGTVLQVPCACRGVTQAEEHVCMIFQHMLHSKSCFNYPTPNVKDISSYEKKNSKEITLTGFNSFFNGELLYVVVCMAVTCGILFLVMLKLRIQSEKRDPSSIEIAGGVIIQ

In turn, “recombinant human GDF15 (generated by Janssen BioTherapeutics) (from UniProt Q99988 197-308) (ligand)” registered a decrease in 12-hour food intake after a single subcutaneous administration of 16 nmol/kg greater than 40%.
